Here are results for 2 molecules from patent US20240270840A1 (NECTIN THERAPEUTICS, published 2024).

Substitutions are numbered along the chain they refer to. Names may count otherwise.

For assay [1], the target named is Cynomolgus monkey (Macaca fascicularis) CD112R expressed on cells (cynomolgus monkey (Macaca fascicularis)). In words: flow cytometry on 293T cells; EC50 on cynomolgus CD112R against EC50 on human CD112R. (In general: Flow cytometry measures light scatter and fluorescence of single cells or particles in a stream.)
For assay [2], the target named is T1, Human CD112R expressed on cells (human, UniProt Q6DKI7 1-326).
T1 construct: whole, on cells; also called HuCD112R; hCD112R
T1 sequence (looked up): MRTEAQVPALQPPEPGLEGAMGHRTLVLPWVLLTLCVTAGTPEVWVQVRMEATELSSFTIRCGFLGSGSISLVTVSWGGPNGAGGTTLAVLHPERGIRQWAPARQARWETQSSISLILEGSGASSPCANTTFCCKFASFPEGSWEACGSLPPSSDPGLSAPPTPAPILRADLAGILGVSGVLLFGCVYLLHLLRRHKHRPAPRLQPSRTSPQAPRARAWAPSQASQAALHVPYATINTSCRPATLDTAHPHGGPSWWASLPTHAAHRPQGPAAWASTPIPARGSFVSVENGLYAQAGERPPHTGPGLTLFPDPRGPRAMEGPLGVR
Kind of assay: flow cytometry on 293T cells expressing human CD112R; 99-0.05 nM, three-fold dilutions. As for the experimental part: The humanized mAbs were tested for binding of endogenous and overexpressed human and cynomolgus CD112R.

Assay [3] deals with T2, Human CD112R (PVRIG) (human, UniProt Q6DKI7 41-171, limits assumed).
T2 sequence (looked up): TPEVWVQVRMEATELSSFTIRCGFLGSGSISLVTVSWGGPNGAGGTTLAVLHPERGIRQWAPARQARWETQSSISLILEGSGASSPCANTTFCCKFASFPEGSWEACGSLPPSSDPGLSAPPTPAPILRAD
Kind of assay: affinity of glycosylation-motif variants (Table 2; method not named there).

In assay [4] the target is T2, Human CD112R (PVRIG). In words: SPR (Biacore), against the reference Ab. In general terms: SPR reads the build-up and loss of mass on a sensor chip optically.
Assay [5] addresses T1, Human CD112R expressed on cells. Kind of assay: FACS, chimeric mAb 99-0.4 nM in three-fold dilutions on HEK 293T cells overexpressing CD112R, anti-human-APC 1:200. As for the experimental part: For detection, anti-human-APC antibody (Ab) was used at 1:200 dilution, and cell binding was analyzed by FACS. FIG. 3C—8866 cells ([…]) overexpressing human Nectin-2 were incubated with 10 μg/ml of CD112R-Fc in the presence of isotype control Ab, or with the indicated clones at 4 μg/ml. Bound CD112R-Fc was detected by anti-mouse-Dy-647 1:250 dilution and analyzed by FACS. The blocking of CD112R binding exceeded 95% by all the variants.
Binding was analyzed by FACS and used for calculation of EC-50 values. […] The N31S variant, engineered to remove an N-Linked glycosylation motif at the CDR1 of the heavy chain, had improved (sub-nM) binding to human CD112R in this cell-based assay.

Assay [6] deals with T2, Human CD112R (PVRIG). In words: SPR (Biacore); purified full antibody.
Assay [7] addresses T2, Human CD112R (PVRIG). In words: SPR (Biacore); human CD112R as ligand, antibody as analyte; * limit of Biacore instrument.
The target in assay [8] is Cynomolgus monkey (Macaca fascicularis) CD112R expressed on cells (cynomolgus monkey (Macaca fascicularis)). In words: flow cytometry on 293T cells expressing cynomolgus CD112R; 99-0.05 nM, three-fold dilutions.
For assay [9], the target named is T2, Human CD112R (PVRIG). Kind of assay: SPR (Biacore); human CD112R as ligand, antibody as analyte.

B1: chimeric clone-13(N31S)-hIgG1 (VH0K0) (antibody, V domains shown)
VH: QVQLQQPGAELVKPGTSVKLSCKASGYNFTSYWINWVKLRPGQGLEWIGDIYPGSYIPNYNEKFKNKATLTVDTSSSTAYMQLTSLASEDSALYYCAGGYFDVWGAGTTVTVSS
VL: DIVMTQSPSSLSVSAGEKVTMSCKSSQSLLSSGNQKNYLAWYQQKPGQPPKLLIYGASTRESGVPDRFTGSGSGTDFTLTISSVQAEDLAVYYCQNDHSYPYTFGGGTKLEIK
notes: Chimeric, human IgG1; Light chain with N31S (deamidation removal), also denoted N27dS by Kabat numbering; also called clone N31S; VH0Vk0
With B1, in assay [1], the Ratio Cyno/Hu (EC50) stood at 1.75. Besides, the EC50 was found to be 0.55 nM in assay [2], 0.7 nM in assay [5] and 0.97 nM in [8]. In addition, the Kd with Human CD112R (PVRIG) [3] is 0.167 nM; in the assay with Human CD112R (PVRIG) [6], 0.145 nM; with Human CD112R (PVRIG) [7], 0.00096 nM. Besides, the “Relative Kd (against VH0Vk0)” value with Human CD112R (PVRIG) [3] worked out at 1. The “fold more potent in binding CD112R than the reference Ab” value with Human CD112R (PVRIG) [4] was 3 to 30 fold. For the same molecule, the “Relative Kd (against VH0K0 N28T)” value with Human CD112R (PVRIG) [6] was 1.16. For the same molecule, the koff with Human CD112R (PVRIG) [6] was found to be 3.05e-05 s⁻¹; with Human CD112R (PVRIG) [9], 3.26e-07 s⁻¹. The values for the kon with Human CD112R (PVRIG) [6] and in the assay with Human CD112R (PVRIG) [9] were 210000 M⁻¹ s⁻¹ and 340000 M⁻¹ s⁻¹, respectively.

B2: Clone-13-hIgG1 (antibody, V domains shown)
VH: B1 VH
VL: B1 VL with S31N
notes: Chimeric antibody with human IgG1 constant region; also called chimeric clone (clone 13)
Take B2: the “fold more potent in binding CD112R than the reference Ab” value in the assay with Human CD112R (PVRIG) [4] lay in the range of 3 to 30 fold. The molecule further registered an EC50 in assay [5] of 1.24 nM. Further, the Kd with Human CD112R (PVRIG) [7] turned out to be 0.00871 nM. Besides, in the assay with Human CD112R (PVRIG) [9], the koff is 2.96e-06 s⁻¹ and the kon is 340000 M⁻¹ s⁻¹.

As usually defined, the EC50 is the concentration that produces a half-maximal response. The term Kd denotes the concentration at which binding is half-saturated. As a reminder, the koff is the first-order rate constant of dissociation. As usually defined, the kon is the rate constant with which the complex forms.
